One block for each binder: values may come before it.
Key:
muCD98hc ECD Avi-His = molecular target: T1, muCD98hc ECD Avi-His (mouse, UniProt P10852 100-526); assay: ELISA, hybridoma supernatant
T1 construct: biotinylated on the Avi tag where captured on streptavidin; also called Mouse CD98-AVI-His; Mouse CD98hc-AVI-His
T1 sequence: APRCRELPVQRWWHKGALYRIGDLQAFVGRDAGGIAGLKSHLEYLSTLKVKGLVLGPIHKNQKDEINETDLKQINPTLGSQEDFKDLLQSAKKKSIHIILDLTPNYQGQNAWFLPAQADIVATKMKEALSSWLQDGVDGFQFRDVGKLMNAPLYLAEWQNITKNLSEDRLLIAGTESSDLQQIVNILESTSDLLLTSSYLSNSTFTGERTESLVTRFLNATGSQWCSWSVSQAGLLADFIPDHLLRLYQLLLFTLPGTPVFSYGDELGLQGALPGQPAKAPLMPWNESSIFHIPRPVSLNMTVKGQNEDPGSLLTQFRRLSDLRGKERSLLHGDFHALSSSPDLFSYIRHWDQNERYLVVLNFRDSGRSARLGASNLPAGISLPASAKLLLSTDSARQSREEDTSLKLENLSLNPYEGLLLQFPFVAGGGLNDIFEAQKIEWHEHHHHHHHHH
Procedure, shortened: (§1)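 Binding of hybridoma supernatants (30 min, room temperature) was read as 450 nm absorbance after TMB development and sulfuric acid quench. Antigens, Avi-His-tagged CD98hc from human, cyno or mouse plus human TfR, were captured at 1 μg/ml onto streptavidin-coated wells for 1 h.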

huCD98hc ECD Avi-His = molecular target: T2, huCD98hc ECD Avi-His (human, UniProt P08195 105-529); assay: ELISA, hybridoma supernatant
T2 construct: biotinylated on the Avi tag where captured on streptavidin; also called Human CD98-AVI-His; Human CD98hc-AVI-His
T2 sequence: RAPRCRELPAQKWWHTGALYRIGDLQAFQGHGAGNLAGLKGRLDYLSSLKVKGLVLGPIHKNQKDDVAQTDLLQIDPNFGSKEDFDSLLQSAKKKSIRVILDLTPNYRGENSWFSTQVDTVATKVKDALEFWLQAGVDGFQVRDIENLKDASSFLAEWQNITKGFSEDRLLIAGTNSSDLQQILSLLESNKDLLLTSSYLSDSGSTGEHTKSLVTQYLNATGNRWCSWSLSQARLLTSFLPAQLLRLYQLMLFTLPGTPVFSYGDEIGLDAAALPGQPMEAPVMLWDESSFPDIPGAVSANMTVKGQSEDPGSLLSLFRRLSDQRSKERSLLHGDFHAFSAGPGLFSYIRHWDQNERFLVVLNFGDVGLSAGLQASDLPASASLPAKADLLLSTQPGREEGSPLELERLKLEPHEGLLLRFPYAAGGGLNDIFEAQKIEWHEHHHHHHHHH
Procedure, shortened: as §1

[1] = molecular target: T3, Full length mouse CD98hc on CHO cells (mouse, UniProt P10852 1-526); assay: FACS, hybridoma supernatant
T3 construct: CHO cells stably overexpressing it; also called CHO-mouse CD98hc; CHO-mCD98hc
T3 sequence: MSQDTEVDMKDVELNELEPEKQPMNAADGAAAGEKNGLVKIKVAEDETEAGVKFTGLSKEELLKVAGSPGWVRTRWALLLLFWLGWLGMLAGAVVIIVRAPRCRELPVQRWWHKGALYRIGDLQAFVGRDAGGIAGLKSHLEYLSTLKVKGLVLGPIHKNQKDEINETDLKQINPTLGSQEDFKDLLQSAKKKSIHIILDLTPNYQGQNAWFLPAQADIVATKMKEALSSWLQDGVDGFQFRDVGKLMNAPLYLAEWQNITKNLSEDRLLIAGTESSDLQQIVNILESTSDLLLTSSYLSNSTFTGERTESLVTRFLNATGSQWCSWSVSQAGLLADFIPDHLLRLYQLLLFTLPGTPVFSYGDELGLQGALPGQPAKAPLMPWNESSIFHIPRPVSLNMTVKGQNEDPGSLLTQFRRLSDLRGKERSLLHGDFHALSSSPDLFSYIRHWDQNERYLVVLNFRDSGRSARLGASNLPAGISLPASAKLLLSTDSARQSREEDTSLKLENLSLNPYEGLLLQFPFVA
Source text: The IgG positive hybridoma supernatants (898 in total) were initially screened for their ability to differentially bind CHO cells overexpressing human or mouse CD98hc cells compared to CHO parental cells by FACS. Overexpressing cells were harvested, washed, and labeled with various concentrations and combinations of CellTrace cell proliferation dyes CFSE and Violet (ThermoFisher, Cat #C34554 and Cat #34557, respectively) to create uniquely barcoded cell populations. Barcoded cells (5×10⁴ of each cell population) were aliquoted into 96-well U-bottom plates and incubated with 50 μl of hybridoma cell culture supernatant or 1 μg/ml of commercially available purified mouse anti-human CD98hc monoclonal antibody (Sigma Aldrich, Cat #SAB 4700503) and rat anti-mouse CD98hc antibody (Bio-Rad Laboratories, Hercules, CA, Cat #MCA2684) on ice for 30 minutes. […] Following this secondary antibody incubation, the cells were again washed twice with ice-cold FACS buffer and resuspended in a final volume of 50 μl of FACS buffer containing 0.25 μl/well propidium iodide (BD Biosciences, Cat #556463). Binding intensity on cells was analyzed using the FACS Canto system (BD Biosciences), with sorting gates drawn to exclude dead (i.e., propidium iodide-positive) cells. For each barcoded cell population, the ratio of APC Mean Fluorescence Intensity (MFI) divided by secondary antibody MFI was calculated for each anti-CD98hc hybridoma supernatant tested and reported in Table 5.

- OD450 (muCD98hc ECD Avi-His): 0.121
- OD450 (huCD98hc ECD Avi-His): 1.34
- binding result [1]: no binding
B1: CD98HC.04.058 (antibody, V domains shown)
VH: QVQLQQSGAELVRPGVSVKISCKASGYTFTDHTMHWVKQSHARSLEWIGVISTYFGDASYNPKFKGKATMTVDKSSNTAYMELARLTSEDSAIYYCARVGGRLRLGYYFDYWGQGTTLTVSS
VL: NIMMTQSPSSLAVSAGEKVTMNCKSSQTVLYSSNQKNYLAWYQQKPGQSPKLLIYWASTRESGVPDRFTGSGSGTDFTLTISSVQVEDLAVYYCHQYLSSYTFGGGTKLEIK
notes: hybridoma IgG

- OD450 (muCD98hc ECD Avi-His): 0.073
- OD450 (huCD98hc ECD Avi-His): 1.7
- binding result [1]: no binding
B2: CD98HC.04.064 (antibody, V domains shown)
VH: QVQLQQPGAELVRPGASVKLSCKASGYTFTSYWMNWVRQRPGQGLEWIGLIDPSDSETHYNQMFKDRATLTVDKSSSTAYMQLSSLTSADPAVYYCARASYGKGYFDYWGQGTTLTVSS
VL: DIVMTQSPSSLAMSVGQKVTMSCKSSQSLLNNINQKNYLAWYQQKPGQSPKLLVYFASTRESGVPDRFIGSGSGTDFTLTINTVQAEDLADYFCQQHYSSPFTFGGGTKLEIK
notes: hybridoma IgG

- OD450 (muCD98hc ECD Avi-His): 0.0607
- OD450 (huCD98hc ECD Avi-His): 1.61
- binding result [1]: no binding
B3: CD98HC.04.062 (antibody, V domains shown)
VH: EVQLVESGGDLVKPGGSLKLSCTASRFAFSTYDMSWVRQTPEKRLEWVAYISSGGGSTYFPDTVKGRFTISRDNAKNTLYLQMSSLKSEDTAMYYCARQDGHYPWFPYWGQGTLVTVSA
VL: DIVMSQSPSSLAVSVGEKVTMSCKSSQSLLYSGNQKTYLAWYQQKPGQSPKPLIYWASTRESGIPDRFTGSGSGTDFTLTISSVKAEDLAVYYCQQYYSYPPTFGAGTKLELK
notes: hybridoma IgG

- OD450 (muCD98hc ECD Avi-His): 0.0817
- OD450 (huCD98hc ECD Avi-His): 1.38
- binding result [1]: no binding
B4: CD98HC.04.046 (antibody, V domains shown)
VH: QIQLVQSGPVLKKPGETVKISCKASGYTFTNFGMNWVKQAPGKGLKWMGWIDTYTREPTYVDDFKGRFAFSLETSVTTAYLQINDLKNEDSATYFCARGESHWYFDVWGAGTTVTVSS
VL: QIVLTQSPAIMSASLGERVTMTCIVSSSVSSSYLYWYQQKPGSSPKLWIYSTSILASGVPGRFSGSGSGTSYSLTISSMEAEDAATYYCHQYHRSPPTFGGGTKLEIK
notes: hybridoma IgG

- OD450 (muCD98hc ECD Avi-His): 0.0738
- OD450 (huCD98hc ECD Avi-His): 1.66
- binding result [1]: no binding
B5: CD98HC.04.063 (antibody, V domains shown)
VH: EVKLEESGGGLVQPGGSMILSCVASGFTFSNSWMNWVRQSPEKGLEWVAEIRLRSNNYATHYAESVKGRFTISRDDSKSTVYLQMNNLRAEDTGIYYCSRGDPGAYWGQGTLVTVSA
VL: DIQMTQSSSYLSVSLGNRVTITCKASDHIKNWLAWFQQKPGNAPRLLISGATILETGVPSRFSGSGSGKDYTLSITSLQTEDVATYYCQQYWSTPYTFGGGTKLEIK
notes: hybridoma IgG

- OD450 (muCD98hc ECD Avi-His): 0.0938
- OD450 (huCD98hc ECD Avi-His): 1.49
- binding result [1]: no binding
B6: CD98HC.03.004 (antibody, V domains shown)
VH: DVQLQESGPGLVKPSQSLSLTCTVTGYSITNNYAWNWIRRFPGNKLEWMAYISYSGYTSYNPSLKSRISITRDTSKNQFFLQLNSVTTEDTATYYCTGYFYYYGGGSFDYWGQGTTLTVSS
VL: QAVVTQESALTTSPGETVTLTCRSSTGAVTTSNFANWVQEKPDHLFTGLIRGSNNRAPGVPARFSGSLIGDKAALTITGARTEDEAIYFCALWYSDHWVFGGGTKLTVL
notes: hybridoma IgG

- OD450 (muCD98hc ECD Avi-His): 0.0625
- OD450 (huCD98hc ECD Avi-His): 1
- binding result [1]: no binding
B7: CD98HC.03.010 (antibody, V domains shown)
VH: EVQLQQSGTELVKPGASVKLSCTASGLDIKDTYLHWVKQRPEQGLEWIGKIDPANGNTKYNPKFQGKATITADTSSNTAYLQLSSLTSEDTAVHYCTTPYYSGSSYGDYWGQGTTLTVSS
VL: QIVLTQSPAIMSASPGEKVTLTCSASSSVSSSYLYWYQQKPGSSPKLWIYSTSNLASGVPARFSGSGSGTSYSLTISSMEAEDAASYFCHQWSRYPLTFGAGTKLELK
notes: hybridoma IgG

From US20250270341A1 (Alector, published 2025)
